Drawing on paper PMC6637311, “Glyceraldehyde-3-Phosphate Dehydrogenase of Babesia microti Is a Plasminogen- and Actin-Binding Protein” (Frontiers in Veterinary Science, 2019), this text covers Km for one substance.

In the data set the test system is O=C[C@H](O)COP(=O)(O)O. Description: purified protein. The following applies: 0.5 mM NAD+, 50 mM glycine, 50 mM KH2PO4, 5 mM EDTA, pH 9.5, 25 °C.

A word on the Km: it is the substrate concentration at which the rate is half of its maximum. On to rBmGAPDH (Babesia microti strain RI), for which the Km was determined as 583 µM.
